The target of this experiment is platelet glycoprotein (GP) IIb/IIIa on platelets of mouse platelet rich plasma (mouse) (UniProt Q9QUM0). As to the kind of experiment: cell-based or functional assay.

These results are taken from patent US20130316951A1.

platelet glycoprotein (GP) IIb/IIIa on platelets of mouse platelet rich plasma (mouse), sequence (Q9QUM0 32-1033, chain 1 of 2): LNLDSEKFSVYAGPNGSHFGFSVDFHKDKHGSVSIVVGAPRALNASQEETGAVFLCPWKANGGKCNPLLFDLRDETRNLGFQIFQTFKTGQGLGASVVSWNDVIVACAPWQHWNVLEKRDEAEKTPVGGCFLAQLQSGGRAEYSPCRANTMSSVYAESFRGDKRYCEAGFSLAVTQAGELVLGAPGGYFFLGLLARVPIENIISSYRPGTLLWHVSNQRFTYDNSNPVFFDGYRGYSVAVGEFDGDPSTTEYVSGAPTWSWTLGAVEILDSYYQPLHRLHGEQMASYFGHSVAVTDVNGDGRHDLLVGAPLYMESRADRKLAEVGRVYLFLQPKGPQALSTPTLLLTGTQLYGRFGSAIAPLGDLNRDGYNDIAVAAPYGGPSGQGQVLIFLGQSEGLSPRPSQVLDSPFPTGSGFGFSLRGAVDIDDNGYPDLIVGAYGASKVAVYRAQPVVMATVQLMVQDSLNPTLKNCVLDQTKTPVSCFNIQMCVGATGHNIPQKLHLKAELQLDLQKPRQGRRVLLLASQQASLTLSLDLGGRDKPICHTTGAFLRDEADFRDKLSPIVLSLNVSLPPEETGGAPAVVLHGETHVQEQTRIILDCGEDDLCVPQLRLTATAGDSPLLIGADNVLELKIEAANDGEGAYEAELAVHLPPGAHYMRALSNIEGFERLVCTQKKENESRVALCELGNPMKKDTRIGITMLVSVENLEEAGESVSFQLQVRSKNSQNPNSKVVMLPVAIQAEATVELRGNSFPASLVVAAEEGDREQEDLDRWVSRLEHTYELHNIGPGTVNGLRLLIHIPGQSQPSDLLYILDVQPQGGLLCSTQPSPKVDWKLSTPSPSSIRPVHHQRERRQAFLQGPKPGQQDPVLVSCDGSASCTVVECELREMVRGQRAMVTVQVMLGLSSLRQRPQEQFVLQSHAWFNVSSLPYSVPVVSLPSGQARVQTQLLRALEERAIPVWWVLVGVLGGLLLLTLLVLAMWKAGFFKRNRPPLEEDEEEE
platelet glycoprotein (GP) IIb/IIIa on platelets of mouse platelet rich plasma (mouse), sequence (O54890 26-787, chain 2 of 2, further chain): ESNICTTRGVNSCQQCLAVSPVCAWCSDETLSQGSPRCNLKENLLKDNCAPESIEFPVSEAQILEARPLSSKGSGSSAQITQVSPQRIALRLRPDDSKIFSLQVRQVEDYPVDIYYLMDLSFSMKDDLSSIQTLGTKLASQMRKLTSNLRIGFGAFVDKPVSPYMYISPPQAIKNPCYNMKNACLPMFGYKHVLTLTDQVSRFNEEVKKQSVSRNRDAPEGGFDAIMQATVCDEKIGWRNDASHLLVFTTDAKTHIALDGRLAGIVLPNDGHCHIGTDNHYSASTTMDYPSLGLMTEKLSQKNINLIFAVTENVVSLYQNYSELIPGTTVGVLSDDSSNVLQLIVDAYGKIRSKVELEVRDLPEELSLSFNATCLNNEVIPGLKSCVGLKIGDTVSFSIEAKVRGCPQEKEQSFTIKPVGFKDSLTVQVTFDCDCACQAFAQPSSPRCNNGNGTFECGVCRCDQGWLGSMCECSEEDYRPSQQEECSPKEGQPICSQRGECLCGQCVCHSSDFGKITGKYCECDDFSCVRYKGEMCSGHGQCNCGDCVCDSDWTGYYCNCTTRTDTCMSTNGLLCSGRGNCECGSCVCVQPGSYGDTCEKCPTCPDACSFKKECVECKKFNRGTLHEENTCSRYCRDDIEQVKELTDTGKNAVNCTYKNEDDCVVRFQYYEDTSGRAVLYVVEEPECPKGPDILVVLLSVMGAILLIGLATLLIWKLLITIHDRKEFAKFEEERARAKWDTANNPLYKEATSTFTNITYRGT

“recombinant saxatilin (from UniProt Q9DGH6 1-73) (ligand)” showed an IC50 of inhibition of ADP-induced platelet aggregation, mouse PRP, aggregometer of 176 nM and a treatment concentration giving a similar level of platelet aggregation inhibition of 0.7 µM.
